Measurements published in US10407473B2, “Methods for treating disorders that involve immunoglobulin A” (UNIVERSITY OF MANITOBA, priority 2011, dated 2019).

B1: FDC-SP SN: supernatant of L cells transfected with FDC-SP expression vector, containing recombinant FDC-SP (protein, UniProt Q8NFU4 18-85, looked up)
Follicular dendritic cell …: FPVSQDQEREKRSISDSDELASGFFVFPYPYPFRPLPPIPFPRFPWFRRNFPIPIPESAPTTPLPSEK
modifications: in L cell culture supernatant
B2: FDC-SP: secreted immuno-modulatory polypeptide expressed by activated follicular dendritic cells (protein, UniProt Q8NFU4 18-85, looked up)
Follicular dendritic cell …: B1 Follicular dendritic cell …

Columns and labels:
[1] = tested on: mouse B cells stimulated to produce IgA; assay: IgA production by cultured, stimulated mouse splenic B cells (ELISA of supernatants, flow cytometry); type: cell-based; settings: FIG. 8, C57BL6 spleen B cells cultured 5 days with stimuli and a percentage of supernatant, vs Control SN
Source text: A polypeptide of the present invention having immunoregulatory activity inhibits IgA production by B cells in vitro. Whether a polypeptide has immuno-modulatory activity may be determined by in vitro assays. An example of an in vitro assay is described in Example 1. The assay uses B cells, which in one embodiment may be a primary cell obtained from an animal, such as a mouse or human, or in another embodiment may be a B cell line. When obtained from an animal, B cells may be obtained from lymphoid tissues such as spleen, tonsil, and lymph node. […]
Single cell suspensions were generated from the indicated tissues and were pre-incubated with hybridoma supernatant containing Fc receptor blocking antibody. […] Data were analyzed using FlowJo software (TreeStar).
Serum, saliva and bronchoalveolar lavage fluid were collected from 10-14 week old FDC-SP-deficient mice, FDC-SP transgenic mice and strain, age and sex-matched controls. […] Total antibodies levels were determined by coating with anti-mouse IgM or IgA (Jackson ImmunoResearch Laboratories) and NP-specific antibodies levels were determined by coating plates with NP20-BSA (Biosearch Technologies). […]

T lymphoma cells = settings: secreted FDC-SP; cited from earlier work
B lymphoma cells = settings: secreted FDC-SP; cited from earlier work
[2] = Toxicity observation in FDC-SP transgenic mice; type: in vivo; settings: transgenic mice expressing increased levels of FDC-SP polypeptide
Source text: FDC-SP transgenic CD1 mice (i.e., mice constitutively expressing FDC-SP in lymphoid tissues) were generated as described (Al-Alwan et al., 2007, J. Immunol., 178:7859-7867). All experimental animals were housed at the Central Animal Care Facility (University of Manitoba, Winnipeg, MB) in compliance with the guidelines established by the Canadian Council on Animal Care.

Molecule | IgA production in vitro [1] | binding to the surface of T lymphoma cells (T lymphoma cells) | binding to the surface of B lymphoma cells (B lymphoma cells) | toxicity associated with the polypeptide [2]
B1 | suppressed |  |  | 
B2 |  | not | can bind | no evidence of toxicity
